# Assays:
# Assay in all cases: cell-based or functional assay
# [1] = molecular target: Env of HIV isolate BB539.2B13 (clade A) (HIV)
# [2] = molecular target: Env of HIV isolate MB539.2B7 (clade A) (HIV)
# [3] = molecular target: Env of HIV isolate CAP244.D3 (clade C) (HIV)
# [4] = molecular target: Env of HIV isolate TH023.6 (clade AE) (HIV)
# [5] = molecular target: Env of HIV isolate DJ263.8 (clade AG) (HIV)
# [6] = molecular target: Env of HIV isolate C2101.c1 (clade AE) (HIV)
# [7] = molecular target: HIV Env of isolate MS208.A1 (HIV)
# [8] = molecular target: Env of HIV isolate SO18.18 (clade C) (HIV)
# [9] = molecular target: Env of HIV isolate KNH1209.18 (clade A) (HIV)
# [10] = molecular target: Env of HIV isolate CH117.4 (clade BC) (HIV)
# [11] = molecular target: HIV Env of isolate KER2008.12 (HIV)
# [12] = molecular target: Env of HIV isolate CNE30 (clade C in Table 7) (HIV)
# [13] = molecular target: Env of HIV isolate BR025.9 (clade C) (HIV)
# [14] = molecular target: HIV Env of isolate 6631.v3.c10 (HIV)
# [15] = molecular target: Env of HIV isolate TRO.11 (clade B) (HIV)
# [16] = molecular target: HIV Env of isolate T255-34 (HIV)
# [17] = molecular target: Env of HIV isolate BJOX025000.01.1 (clade AE) (HIV)
# [18] = molecular target: HIV Env of isolate TH966.8 (HIV)
# [19] = molecular target: HIV Env of isolate 191821.E6.1 (HIV)
# [20] = molecular target: Env of HIV isolate TZBD.02 (clade C) (HIV)
# [21] = molecular target: HIV Env of isolate 6471.v1.c16 (HIV)
# [22] = molecular target: Env of HIV isolate CNE15 (clade BC) (HIV)
# [23] = molecular target: HIV Env of isolate 45_01dG5 (HIV)
# [24] = molecular target: Env of HIV isolate 269-12 (clade AG) (HIV)
# [25] = molecular target: HIV Env of isolate ZA012.29 (HIV)
# [26] = molecular target: HIV Env of isolate CNE15 (HIV)
# [27] = molecular target: HIV Env of isolate DU172.17 (HIV)
# [28] = molecular target: HIV Env of isolate BB539.2B13 (HIV)
# [29] = molecular target: HIV Env of isolate WITO.33 (HIV)
# [30] = molecular target: HIV Env of isolate T280-5 (HIV)
# [31] = molecular target: HIV Env of isolate PVO.04 (HIV)
# [32] = molecular target: Env of HIV isolate ZM106.9 (clade C) (HIV)
# [33] = molecular target: HIV Env of isolate 26191-2.48 (HIV)
# [34] = molecular target: HIV Env of isolate ZM233.6 (HIV)
# [35] = molecular target: Env of HIV isolate CNE19 (clade BC) (HIV)
# [36] = molecular target: HIV Env of isolate 6644.v2.c33 (HIV)
# [37] = molecular target: HIV Env of isolate HXB2.DG (HIV) (UniProt P04578)
# [38] = molecular target: HIV Env of isolate 0921.v2.c14 (HIV)
# [39] = molecular target: Env of HIV isolate 6095.v1.c10 (clade ACD) (HIV)
# [40] = molecular target: Env of HIV isolate BG505.W6M.C2 (clade A) (HIV)
# [41] = molecular target: HIV Env of isolate 242-14 (HIV)
# [42] = molecular target: HIV Env of isolate 928-28 (HIV)
# [43] = molecular target: HIV Env of isolate TZBD.02 (HIV)
# [44] = molecular target: HIV Env of isolate 3988.25 (HIV)
# [45] = molecular target: Env of HIV isolate 3988.25 (clade B) (HIV)
# [46] = molecular target: HIV Env of isolate C2101.c1 (HIV)
# [47] = molecular target: Env of HIV isolate KER2008.12 (clade A) (HIV)
# [48] = molecular target: Env of HIV isolate 3817.v2.c59 (clade CD) (HIV)
# [49] = molecular target: HIV Env of isolate CNE31 (HIV)
# [50] = molecular target: Env of HIV isolate CM244.ec1 (clade AE) (HIV)
# [51] = molecular target: HIV Env of isolate 3326.v4.c3 (HIV)
# [52] = molecular target: Env of HIV isolate X2131.C1.B5 (clade G) (HIV)
# [53] = molecular target: HIV Env of isolate DU156.12 (HIV)
substance,measurement,setting,value
PGT121 (antibody),"IC50, pseudovirus neutralization",[1],> 50 µg/mL
same,"IC50, pseudovirus neutralization",[2],> 50 µg/mL
same,"IC50, pseudovirus neutralization",[3],> 50 µg/mL
same,"IC50, pseudovirus neutralization",[4],> 50 µg/mL
same,"IC50, pseudovirus neutralization",[5],0.0577 µg/mL
same,"IC50, pseudovirus neutralization",[6],> 50 µg/mL
same,IC80,[7],> 50 µg/mL
same,"IC50, pseudovirus neutralization",[8],0.00533 µg/mL
same,"IC50, pseudovirus neutralization",[9],0.0117 µg/mL
same,"IC50, pseudovirus neutralization",[10],> 50 µg/mL
same,IC80,[11],6.55 µg/mL
same,"IC50, pseudovirus neutralization",[12],0.114 µg/mL
same,"IC50, pseudovirus neutralization",[13],0.00967 µg/mL
same,"IC80, pseudovirus neutralization",[14],> 50 µg/mL
same,"IC50, pseudovirus neutralization",[15],0.0203 µg/mL
same,IC80,[16],> 50 µg/mL
same,"IC50, pseudovirus neutralization",[17],> 50 µg/mL
same,IC80,[18],> 50 µg/mL
same,"IC80, pseudovirus neutralization",[19],> 50 µg/mL
same,"IC50, pseudovirus neutralization",[20],0.0257 µg/mL
same,"IC80, pseudovirus neutralization",[21],> 50 µg/mL
same,"IC50, pseudovirus neutralization",[22],6.64 µg/mL
same,IC80,[23],0.0257 µg/mL
same,"IC50, pseudovirus neutralization",[24],0.128 µg/mL
same,"IC80, pseudovirus neutralization",[25],0.0347 µg/mL
same,"IC80, pseudovirus neutralization",[26],> 50 µg/mL
same,"IC80, pseudovirus neutralization",[27],0.41 µg/mL
same,IC80,[28],> 50 µg/mL
same,IC80,[29],2.02 µg/mL
same,IC80,[30],0.038 µg/mL
same,IC80,[31],0.498 µg/mL
same,"IC50, pseudovirus neutralization",[32],0.0127 µg/mL
same,"IC80, pseudovirus neutralization",[33],0.236 µg/mL
same,"IC80, pseudovirus neutralization",[34],3.6 µg/mL
same,"IC50, pseudovirus neutralization",[35],0.00933 µg/mL
same,"IC80, pseudovirus neutralization",[36],0.14 µg/mL
same,IC80,[37],> 50 µg/mL
same,"IC80, pseudovirus neutralization",[38],> 50 µg/mL
same,"IC50, pseudovirus neutralization",[39],1.98 µg/mL
same,"IC50, pseudovirus neutralization",[40],0.0513 µg/mL
same,IC80,[41],> 50 µg/mL
same,IC80,[42],29.9 µg/mL
same,"IC80, pseudovirus neutralization",[43],0.137 µg/mL
same,IC80,[44],0.0287 µg/mL
same,"IC50, pseudovirus neutralization",[45],0.0127 µg/mL
same,IC80,[46],> 50 µg/mL
same,"IC50, pseudovirus neutralization",[47],0.553 µg/mL
same,"IC50, pseudovirus neutralization",[48],22.2 µg/mL
same,"IC80, pseudovirus neutralization",[49],2.08 µg/mL
same,"IC50, pseudovirus neutralization",[50],> 50 µg/mL
same,"IC80, pseudovirus neutralization",[51],> 50 µg/mL
same,"IC50, pseudovirus neutralization",[52],0.013 µg/mL
same,"IC80, pseudovirus neutralization",[53],0.0367 µg/mL

# Source: patent publication US20210292396A1
